Measurements reported in article PMC9984531, “Cryo-EM structure of human heptameric pannexin 2 channel” (Nature Communications, 2023).

Target: the molecule itself
Test: cryo-EM structure; single-particle cryo-EM of purified Panx2-NT (Superose 6 peak at 16.0 ml), 50 mM Tris pH 7.5, 150 mM NaCl, 0.02% GDN, ~10 mg/ml; C1 map without imposed symmetry, final refinement with C7 symmetry at ~3.4 Å

B1: human pannexin 2 N-terminal domain (Panx2-NT, amino acids 1-410) (domain or fragment, UniProt Q96RD6-3 1-410, looked up)
chain: MHHLLEQSADMATALLAGEKLRELILPGAQDDKAGALAALLLQLKLELPFDRVVTIGTVLVPILLVTLVFTKNFAEEPIYCYTPHNFTRDQALYARGYCWTELRDALPGVDASLWPSLFEHKFLPYALLAFAAIMYVPALGWEFLASTRLTSELNFLLQEIDNCYHRAAEGRAPKIEKQIQSKGPGITEREKREIIENAEKEKSPEQNLFEKYLERRGRSNFLAKLYLARHVLILLLSAVPISYLCTYYATQKQNEFTCALGASPDGAAGAGPAVRVSCKLPSVQLQRIIAGVDIVLLCVMNLIILVNLIHLFIFRKSNFIFDKLHKVGIKTRRQWRRSQFCDINILAMFCNENRDHIKSLNRLDFITNESDLMYDNVVRQLLAALAQSNHDATPTVRDSGVQTVDPSAN
modifications: N-glycosylated on N86 (extra density observed near N86)
notes: Pannexin 2 (PANX2), H. sapiens, NCBI NP_443071.2, 677 residues in full; construct Panx2-NT holds amino acids 1-410, made to mimic the caspase-cleaved truncation; the model holds residues 41-184, 188-266, 273-373 and 377-388; also called C-terminal truncated Panx2; human N-terminal Panx2; source: HEK293F, transient transfection (PEI), purified (DDM solubilisation, anti-FLAG M2 agarose, Superose 6 …)
stoichiometry N: 7
